Like-named read-outs stand apart in the source and are kept apart here.
Columns and labels:
Ngb = Ngb reductase activity; type: biochemical, murine; conditions: 37 °C; 5 μM Ngb; anaerobic
Source text: Reagents were purchased from Sigma-Aldrich Chemical Co (St Louis, MO, USA) unless otherwise stated. DNA primers were synthesized at the University of Cincinnati Medical Center DNA facility. Praxair (Bethlehem, PA, USA) was the supplier of 99.993% O2, 99.999% CO, and 99.98% N2. Bovine liver catalase (260,000 U/ml) was obtained from Roche Applied Science. Recombinant rat cytochrome b5 (soluble form) and murine Ngb were expressed in E. coli and purified essentially as described ([10], [70]). NADH purity (≥95%) was assessed by the ratio of the 340 to 260 nm absorbance with a value of 0.437 equal to 100% reduced.

E. coli flavoHb-NOD [1] = test system: E. coli flavoHb-NOD
Protocol: NOD activity was measured amperometrically in 100 mM phosphate buffer, pH 7.0, containing 0.3 mM EDTA, 100 μg/ml bovine serum albumin (BSA) (Fraction V), 100 μM NADH, 0.1 μM FAD with NO, O2, and N2 mixtures added as described ([4], [72]). NADH oxidase activity was followed spectrophotometrically at 340 nm in a 1.0-ml cuvette containing 90 mM Tris chloride buffer, pH 8.2, 100 μM NADH, 200 μM O2, 0.1 μM FAD, 100 μg/ml BSA, and 0.3 mM EDTA and incubated at 37 °C. Cytochrome b5 reductase activity was assayed at 37 °C by following the rate of absorbance increase at 555 nm in a 1.0-ml reaction buffered with 90 mM Tris chloride, pH 8.2, and containing 10 μM ferric cytochrome b5, 200 μM O2, 20 μM NADH, 0.1 μM FAD, 100 μg/ml BSA, and 0.3 mM EDTA. TMAO reductase activity was assayed by following the absorbance decrease at 340 nm in a 1.0-ml anaerobic reaction containing 12 U Aspergillus niger glucose oxidase, 5 mM glucose, 260 U catalase, 400 mM TMAO, 100 μM NADH, 0.1 μM FAD, 100 μg/ml BSA, and 0.3 mM EDTA in 90 mM Tris chloride pH 8.2 and incubated at 37 °C. Ngb reductase activity was assayed by following the absorbance increase at 424 nm in a 1.0-ml anaerobic reaction containing 12 U glucose oxidase, 5 mM glucose, 260 U catalase, 5 μM Ngb, 50 μM NADH, 0.1 μM FAD, 100 μg/ml BSA, and 0.3 mM EDTA in 90 mM Tris chloride buffer, pH 8.2, and incubated at 37 °C. Methyl viologen reductase activity was assayed by following the formation of the blue cation radical at 603 nm and by applying an extinction coefficient of 13,300 M^−1 cm^−1 in a 1.0-ml anaerobic reaction buffered with 10 mM potassium phosphate, pH 7.0, and containing 12 U glucose oxidase, 5 mM glucose, 260 U catalase, 100 μM NADH, 0.1 μM FAD, 100 μg/ml BSA, 0.3 mM EDTA, and 200 mM sodium chloride and incubated at 37 °C. NO reductase activity was assayed amperometrically at 37 °C in a 1.0-ml anaerobic reaction containing 2 μM NO, 100 μM NADH, 0.1 μM FAD, 12 U glucose oxidase, 5 mM glucose, 260 U catalase, 100 μg/ml BSA, and 0.3 mM EDTA buffered with 10 mM potassium phosphate pH 7.0. CO effects were tested at a final concentration of 50 μM as diluted from a 1 mM stock in water. All activities are reported relative to the heme content of flavoHb.

E. coli flavoHb [2] = target: E. coli flavoHb (Escherichia coli, UniProt P24232)
Protocol: (§1) FAD and heme reduction were monitored by following the changes in flavoHb absorbance at 460 and 430 nm, respectively, with stopped-flow rapid mixing of 50 μM NADH and 10 μM flavoHb in N2-purged buffer ([4]). O2, NO, and CO association rate constants were determined by photolyzing 50 μM of the respective ferrous flavoHb species with a 300-ns pulse from a 577-nm laser and by spectrophotometrically following ligand reassociation in O2-, NO-, or CO-saturated buffer unless otherwise indicated ([4], [5]). […] Binding of NO was measured by the change of absorbance at 422 nm by applying a difference extinction coefficient of 0.040 μM^−1 cm^−1. O2 and CO dissociation rate constants were determined by stopped-flow rapid mixing with either CO or NO displacement ([4], [5]). The cuvette path length was 1.0 cm. All reactions were at 20 °C in filtered 100 mM sodium phosphate buffer, pH 7.0, containing 0.3 mM EDTA. Catalase (1000 U/ml) was included in all reactions containing O2 to scavenge H2O2 produced by the NADH oxidase activity of flavoHb and to regenerate O2.

E. coli flavoHb [3] = test system: E. coli flavoHb
Protocol: as §1

[4] = target: flavoHb heme (Fe^2+ / Fe^3+) (Escherichia coli, UniProt P24232)
Protocol: as §1

[5] = test system: flavoHb heme (Fe^2+ / Fe^3+); conditions: for Kd: from slow phase; for time for 90% activity recovery following NO binding: calculated from k(NO)
Protocol: as §1

E. coli flavoHb-NOD [6] = conditions: entry of O2 into the LT, value assumed for fitting, cited from earlier work
E. coli flavoHb-NOD [7] = target: E. coli flavoHb-NOD (Escherichia coli, UniProt P24232); conditions: read-out: theoretical Km(O2) (Vmax/k'O2); cited from earlier work
[8] = Fe2+ CO, 100 µM CO in the presence of 0.6 mM N2
[9] = Fe2+ O2, 100 µM CO in the presence of 1 mM O2

B1: WT: wild-type E. coli flavohemoglobin (flavoHb), an NO dioxygenase (NOD) (protein, UniProt P24232 1-396, looked up)
Flavohemoprotein: MLDAQTIATVKATIPLLVETGPKLTAHFYDRMFTHNPELKEIFNMSNQRNGDQREALFNAIAAYASNIENLPALLPAVEKIAQKHTSFQIKPEQYNIVGEHLLATLDEMFSPGQEVLDAWGKAYGVLANVFINREAEIYNENASKAGGWEGTRDFRIVAKTPRSALITSFELEPVDGGAVAEYRPGQYLGVWLKPEGFPHQEIRQYSLTRKPDGKGYRIAVKREEGGQVSNWLHNHANVGDVVKLVAPAGDFFMAVADDTPVTLISAGVGQTPMLAMLDTLAKAGHTAQVNWFHAAENGDVHAFADEVKELGQSLPRFTAHTWYRQPSEADRAKGQFDSEGLMDLSKLEGAFSDPTMQFYLCGPVGFMQFTAKQLVDLGVKQENIHYECFGPHKVL
Ngb reductase activity (Ngb): 0.20 s⁻¹ | Δv/Δ[NADH] (E. coli flavoHb-NOD [1]; 20 °C): 36 s⁻¹ µM⁻¹ | Δv/Δ[NADH] (E. coli flavoHb-NOD [1]; 20 °C, 130 nM NO): 30 s⁻¹ µM⁻¹ | Δv/Δ[NADH] (E. coli flavoHb-NOD [1]; 37 °C): 59 s⁻¹ µM⁻¹ | Δv/Δ[NADH] (E. coli flavoHb-NOD [1]; 37 °C, 130 nM NO): 59 s⁻¹ µM⁻¹ | k′H, bimolecular rate constant for hydride transfer NADH to FAD (E. coli flavoHb [2]): 1.5e+07 M⁻¹ s⁻¹ | kET, heme reduction by FADH2 (maximum / apparent) (E. coli flavoHb [3]; 20 °C, absorbance at 430 nm): 120 s⁻¹ | maximal NADH-driven ET rate measured by stopped flow (E. coli flavoHb [3]; Fig. 9B): 160 s⁻¹ | decrease of fraction of flavoHbFe^3+O2^− formed in the fast phase [4]: ~50% | τT for O2 rebinding [4]: ~55 μs | k' fast [5, 8]: 2.9e+07 M⁻¹ s⁻¹ | k' slow [5, 8]: 2.7e+06 M⁻¹ s⁻¹ | τT [5, 8]: 500 ± 100 µs | k' fast [5, 9]: 2.9e+07 M⁻¹ s⁻¹ | k' slow [5, 9]: 1.9e+06 M⁻¹ s⁻¹ | τT [5, 9]: 70 ± 10 µs | k′fast ([5]; Fe^2+ CO, 20 °C): 1.4e+07 M⁻¹ s⁻¹ | k′slow ([5]; Fe^2+ CO, 20 °C): 1.4e+06 M⁻¹ s⁻¹ | τT ([5]; Fe^2+ CO, 20 °C): 175 ± 25 μs | Kd ([5]; Fe^2+ CO, 20 °C): 12 to 39 nM | k′fast ([5]; Fe^2+ NO, 20 °C): 3.1e+07 M⁻¹ s⁻¹ | k′slow ([5]; Fe^2+ NO, 20 °C): 8.5e+06 M⁻¹ s⁻¹ | τT ([5]; Fe^2+ NO, 20 °C): 40 ± 10 μs | Kd ([5]; Fe^2+ NO): 0.024 nM | k′fast ([5]; Fe^2+ O2, 20 °C): 3.3e+07 M⁻¹ s⁻¹ | k′slow ([5]; Fe^2+ O2, 20 °C): 1.4e+07 M⁻¹ s⁻¹ | τT ([5]; Fe^2+ O2, 20 °C): 70 ± 5 μs | k ([5]; Fe^2+ O2 dissociation, 20 °C): 0.20 s⁻¹ | k′fast ([5]; Fe^3+ NO, 20 °C): 4.6e+07 M⁻¹ s⁻¹ | k′slow ([5]; Fe^3+ NO, 20 °C): 1.2e+07 M⁻¹ s⁻¹ | τT ([5]; Fe^3+ NO, 20 °C): 18 ± 3 μs | Kd ([5]; Fe^3+ NO): 330000 nM | time for 90% activity recovery following NO binding ([5]; ferric NO form): 0.6 ms | time for 90% activity recovery following NO binding ([5]; ferrous NO species): 1.15e+07 ms | K1 (E. coli flavoHb-NOD [6]; 20 °C): 2 (2) Micromolar | K1 (E. coli flavoHb-NOD [6]; 37 °C): 2 (2) Micromolar | Km (E. coli flavoHb-NOD [7]): ~2 µM
